Test results as given in patent publication US20160272683A1 (Novo Nordisk, published 2016).
Ends that are not written are not given here. * marks the point of attachment. C18 diacid = O=C(O)CCCCCCCCCCCCCCCCC(=O)*

T1: human calcitonin receptor (human, UniProt P30988 25-474)
T1 construct: whole, on cells; also called hCT-R; hCTR
T1 sequence (looked up): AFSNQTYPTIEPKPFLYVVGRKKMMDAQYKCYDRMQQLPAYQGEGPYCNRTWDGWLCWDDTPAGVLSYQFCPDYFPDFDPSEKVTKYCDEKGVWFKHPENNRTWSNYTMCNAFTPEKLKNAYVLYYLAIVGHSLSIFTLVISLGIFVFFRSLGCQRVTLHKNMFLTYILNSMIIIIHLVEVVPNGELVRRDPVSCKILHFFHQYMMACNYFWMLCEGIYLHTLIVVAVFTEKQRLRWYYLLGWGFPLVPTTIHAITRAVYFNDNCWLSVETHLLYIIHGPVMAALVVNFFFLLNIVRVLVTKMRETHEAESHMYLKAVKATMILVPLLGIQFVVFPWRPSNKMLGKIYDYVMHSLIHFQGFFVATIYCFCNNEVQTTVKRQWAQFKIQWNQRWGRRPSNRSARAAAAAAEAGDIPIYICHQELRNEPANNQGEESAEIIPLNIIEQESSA

B1: mimylin (peptide)
peptide: EASELSTAALGRLSAELHELATLPRTETGPESP-NH2
notes: also called Ex. #1
B2: [N-terminal(C18 diacid), 5I, 9I]mimylin (peptide)
peptide: {C18 diacid}-EASEISTAILGRLSAELHELATLPRTETGPESP-NH2
SMILES: CC[C@H](C)[C@H](NC(=O)[C@H](C)NC(=O)[C@@H](NC(=O)[C@H](CO)NC(=O)[C@@H](NC(=O)[C@H](CCC(=O)O)NC(=O)[C@H](CO)NC(=O)[C@H](C)NC(=O)[C@H](CCC(=O)O)NC(=O)CCCCCCCCCCCCCCCCC(=O)O)[C@@H](C)CC)[C@@H](C)O)C(=O)N[C@@H](CC(C)C)C(=O)NCC(=O)N[C@@H](CCCNC(=N)N)C(=O)N[C@@H](CC(C)C)C(=O)N[C@@H](CO)C(=O)N[C@@H](C)C(=O)N[C@@H](CCC(=O)O)C(=O)N[C@@H](CC(C)C)C(=O)N[C@@H](Cc1c[nH]cn1)C(=O)N[C@@H](CCC(=O)O)C(=O)N[C@@H](CC(C)C)C(=O)N[C@@H](C)C(=O)N[C@H](C(=O)N[C@@H](CC(C)C)C(=O)N1CCC[C@H]1C(=O)N[C@@H](CCCNC(=N)N)C(=O)N[C@H](C(=O)N[C@@H](CCC(=O)O)C(=O)N[C@H](C(=O)NCC(=O)N1CCC[C@H]1C(=O)N[C@@H](CCC(=O)O)C(=O)N[C@@H](CO)C(=O)N1CCC[C@H]1C(N)=O)[C@@H](C)O)[C@@H](C)O)[C@@H](C)O
notes: also called Ex. #25
B3: [N-terminal(C18 diacid), 2P, 9V]mimylin (peptide)
peptide: {C18 diacid}-EPSELSTAVLGRLSAELHELATLPRTETGPESP-NH2
SMILES: CC(C)C[C@H](NC(=O)[C@H](CCC(=O)O)NC(=O)[C@H](Cc1c[nH]cn1)NC(=O)[C@H](CC(C)C)NC(=O)[C@H](CCC(=O)O)NC(=O)[C@H](C)NC(=O)[C@H](CO)NC(=O)[C@H](CC(C)C)NC(=O)[C@H](CCCNC(=N)N)NC(=O)CNC(=O)[C@H](CC(C)C)NC(=O)[C@@H](NC(=O)[C@H](C)NC(=O)[C@@H](NC(=O)[C@H](CO)NC(=O)[C@H](CC(C)C)NC(=O)[C@H](CCC(=O)O)NC(=O)[C@H](CO)NC(=O)[C@@H]1CCCN1C(=O)[C@H](CCC(=O)O)NC(=O)CCCCCCCCCCCCCCCCC(=O)O)[C@@H](C)O)C(C)C)C(=O)N[C@@H](C)C(=O)N[C@H](C(=O)N[C@@H](CC(C)C)C(=O)N1CCC[C@H]1C(=O)N[C@@H](CCCNC(=N)N)C(=O)N[C@H](C(=O)N[C@@H](CCC(=O)O)C(=O)N[C@H](C(=O)NCC(=O)N1CCC[C@H]1C(=O)N[C@@H](CCC(=O)O)C(=O)N[C@@H](CO)C(=O)N1CCC[C@H]1C(N)=O)[C@@H](C)O)[C@@H](C)O)[C@@H](C)O
notes: also called Ex. #28
B4: [N-terminal(C18 diacid), 5I, 9I, 10I, 20I]mimylin (peptide)
peptide: {C18 diacid}-EASEISTAIIGRLSAELHEIATLPRTETGPESP-NH2
SMILES: CC[C@H](C)[C@H](NC(=O)[C@H](C)NC(=O)[C@@H](NC(=O)[C@H](CO)NC(=O)[C@@H](NC(=O)[C@H](CCC(=O)O)NC(=O)[C@H](CO)NC(=O)[C@H](C)NC(=O)[C@H](CCC(=O)O)NC(=O)CCCCCCCCCCCCCCCCC(=O)O)[C@@H](C)CC)[C@@H](C)O)C(=O)N[C@H](C(=O)NCC(=O)N[C@@H](CCCNC(=N)N)C(=O)N[C@@H](CC(C)C)C(=O)N[C@@H](CO)C(=O)N[C@@H](C)C(=O)N[C@@H](CCC(=O)O)C(=O)N[C@@H](CC(C)C)C(=O)N[C@@H](Cc1c[nH]cn1)C(=O)N[C@@H](CCC(=O)O)C(=O)N[C@H](C(=O)N[C@@H](C)C(=O)N[C@H](C(=O)N[C@@H](CC(C)C)C(=O)N1CCC[C@H]1C(=O)N[C@@H](CCCNC(=N)N)C(=O)N[C@H](C(=O)N[C@@H](CCC(=O)O)C(=O)N[C@H](C(=O)NCC(=O)N1CCC[C@H]1C(=O)N[C@@H](CCC(=O)O)C(=O)N[C@@H](CO)C(=O)N1CCC[C@H]1C(N)=O)[C@@H](C)O)[C@@H](C)O)[C@@H](C)O)[C@@H](C)CC)[C@@H](C)CC
notes: also called Ex. #77
B5: [N-terminal(C18 diacid), 3P, 9V]mimylin (peptide)
peptide: {C18 diacid}-EAPELSTAVLGRLSAELHELATLPRTETGPESP-NH2
SMILES: CC(C)C[C@H](NC(=O)[C@H](CCC(=O)O)NC(=O)[C@H](Cc1c[nH]cn1)NC(=O)[C@H](CC(C)C)NC(=O)[C@H](CCC(=O)O)NC(=O)[C@H](C)NC(=O)[C@H](CO)NC(=O)[C@H](CC(C)C)NC(=O)[C@H](CCCNC(=N)N)NC(=O)CNC(=O)[C@H](CC(C)C)NC(=O)[C@@H](NC(=O)[C@H](C)NC(=O)[C@@H](NC(=O)[C@H](CO)NC(=O)[C@H](CC(C)C)NC(=O)[C@H](CCC(=O)O)NC(=O)[C@@H]1CCCN1C(=O)[C@H](C)NC(=O)[C@H](CCC(=O)O)NC(=O)CCCCCCCCCCCCCCCCC(=O)O)[C@@H](C)O)C(C)C)C(=O)N[C@@H](C)C(=O)N[C@H](C(=O)N[C@@H](CC(C)C)C(=O)N1CCC[C@H]1C(=O)N[C@@H](CCCNC(=N)N)C(=O)N[C@H](C(=O)N[C@@H](CCC(=O)O)C(=O)N[C@H](C(=O)NCC(=O)N1CCC[C@H]1C(=O)N[C@@H](CCC(=O)O)C(=O)N[C@@H](CO)C(=O)N1CCC[C@H]1C(N)=O)[C@@H](C)O)[C@@H](C)O)[C@@H](C)O
notes: also called Ex. #29
B6: [30S, 31G]mimylin (peptide)
peptide: EASELSTAALGRLSAELHELATLPRTETGSGSP-NH2
notes: backbone without side chain; also called Ex. #22bb; 22bb
B7: [N-terminal(C18 diacid), 5H]mimylin (peptide)
peptide: {C18 diacid}-EASEHSTAALGRLSAELHELATLPRTETGPESP-NH2
SMILES: CC(C)C[C@H](NC(=O)[C@H](C)NC(=O)[C@H](C)NC(=O)[C@@H](NC(=O)[C@H](CO)NC(=O)[C@H](Cc1c[nH]cn1)NC(=O)[C@H](CCC(=O)O)NC(=O)[C@H](CO)NC(=O)[C@H](C)NC(=O)[C@H](CCC(=O)O)NC(=O)CCCCCCCCCCCCCCCCC(=O)O)[C@@H](C)O)C(=O)NCC(=O)N[C@@H](CCCNC(=N)N)C(=O)N[C@@H](CC(C)C)C(=O)N[C@@H](CO)C(=O)N[C@@H](C)C(=O)N[C@@H](CCC(=O)O)C(=O)N[C@@H](CC(C)C)C(=O)N[C@@H](Cc1c[nH]cn1)C(=O)N[C@@H](CCC(=O)O)C(=O)N[C@@H](CC(C)C)C(=O)N[C@@H](C)C(=O)N[C@H](C(=O)N[C@@H](CC(C)C)C(=O)N1CCC[C@H]1C(=O)N[C@@H](CCCNC(=N)N)C(=O)N[C@H](C(=O)N[C@@H](CCC(=O)O)C(=O)N[C@H](C(=O)NCC(=O)N1CCC[C@H]1C(=O)N[C@@H](CCC(=O)O)C(=O)N[C@@H](CO)C(=O)N1CCC[C@H]1C(N)=O)[C@@H](C)O)[C@@H](C)O)[C@@H](C)O
notes: also called Ex. #17
B8: [N-terminal(C18 diacid), 4P, 9V]mimylin (peptide)
peptide: {C18 diacid}-EASPLSTAVLGRLSAELHELATLPRTETGPESP-NH2
SMILES: CC(C)C[C@H](NC(=O)[C@H](CCC(=O)O)NC(=O)[C@H](Cc1c[nH]cn1)NC(=O)[C@H](CC(C)C)NC(=O)[C@H](CCC(=O)O)NC(=O)[C@H](C)NC(=O)[C@H](CO)NC(=O)[C@H](CC(C)C)NC(=O)[C@H](CCCNC(=N)N)NC(=O)CNC(=O)[C@H](CC(C)C)NC(=O)[C@@H](NC(=O)[C@H](C)NC(=O)[C@@H](NC(=O)[C@H](CO)NC(=O)[C@H](CC(C)C)NC(=O)[C@@H]1CCCN1C(=O)[C@H](CO)NC(=O)[C@H](C)NC(=O)[C@H](CCC(=O)O)NC(=O)CCCCCCCCCCCCCCCCC(=O)O)[C@@H](C)O)C(C)C)C(=O)N[C@@H](C)C(=O)N[C@H](C(=O)N[C@@H](CC(C)C)C(=O)N1CCC[C@H]1C(=O)N[C@@H](CCCNC(=N)N)C(=O)N[C@H](C(=O)N[C@@H](CCC(=O)O)C(=O)N[C@H](C(=O)NCC(=O)N1CCC[C@H]1C(=O)N[C@@H](CCC(=O)O)C(=O)N[C@@H](CO)C(=O)N1CCC[C@H]1C(N)=O)[C@@H](C)O)[C@@H](C)O)[C@@H](C)O
notes: also called Ex. #30

Each binder was assayed against T1, human calcitonin receptor (assay: whole-cell competition vs 125I-human calcitonin (Assay VIIa)).
Method: The binding assay was performed using a BHK tk'ts 13 cell line was stably transfected with the human calcitonin receptor, and a CRE-responsive luciferase reporter gene.
The day before the assay the cells were Seeded into Poly-D-Lysin coated 384W Opaque White, BD BioCoat plates (10000 cells/well) and Incubated overnight at 37° C., 5% CO2, 95% humidity. […] The morning after, the plates were washed three times in HBSS (4° C.), and lyzed in Lysis buffer (0.1 M NaOH), 1% SDS. Scintillation cocktail (MicroScint40®) was added and the plates were shaken at 500 rpm for a short period. The plate was incubated at room temperature in the dark for 1 hour and Read on a TopCounter™ (Packard). The IC₅₀ was calculated using (one site binding competition analysis) GraphPad Prism5 as a measure of receptor affinity.

Row | Binder | IC50 [nM]
1 | B1 | 0.431
2 | B2 | 0.413
3 | B3 | 0.351
4 | B4 | 1.1
5 | B5 | 0.309
6 | B6 | 0.481
7 | B7 | 0.577
8 | B8 | 0.478
